# Experimental data reported in publication PMC3688935, “Coordinated Binding of Single-Stranded and Double-Stranded DNA by UvsX Recombinase”.
# Target: UvsX recombinase (bacteriophage T4, UniProt P04529 1-391)
# Assay: fluorescence quenching; no nucleotide cofactor; 20 mM Tris-HCl pH 7.4, 50 mM NaCl, 3 mM MgCl2, 25 C; DNA in nucleotides or base pairs; quadratic fit with 4 nt (bp) site size
# Settings: protein: recombinant; tags: none stated (pET27b, E. coli BL21(DE3)); label: AlexaFluor 546 on X (position 23); single strand
# Sequence of UvsX recombinase (P04529 whole entry): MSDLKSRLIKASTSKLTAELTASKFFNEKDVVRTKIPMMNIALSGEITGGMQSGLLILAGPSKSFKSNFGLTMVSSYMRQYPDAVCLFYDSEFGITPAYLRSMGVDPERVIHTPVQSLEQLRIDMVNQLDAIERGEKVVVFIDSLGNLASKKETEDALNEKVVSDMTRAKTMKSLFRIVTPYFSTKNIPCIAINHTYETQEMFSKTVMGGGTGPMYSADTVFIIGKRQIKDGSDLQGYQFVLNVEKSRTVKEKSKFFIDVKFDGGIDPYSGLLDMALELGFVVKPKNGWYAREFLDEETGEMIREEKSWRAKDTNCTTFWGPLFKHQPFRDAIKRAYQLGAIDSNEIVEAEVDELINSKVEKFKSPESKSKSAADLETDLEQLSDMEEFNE
binder,measurement,value
"TTTTTTTTTTTTTTTTTTTTTTTTT (ssDNA, X at position 23 = amino-modifier C2 dT) [dT22XT2 ssDNA]",binding result,binds
